Biological target: SARS-CoV-2 spike ectodomain (S-trimer) (SARS-CoV-2) (UniProt P0DTC2)
Experiment: cryo-EM structure

Substance: SARS-CoV-2 spike ectodomain (S-trimer) (from UniProt P0DTC2 14-1213) (complex)
- stoichiometry N: 3

Reference: paper PMC9871958
